Test results as given in article PMC9181312.
pKd: −log10 of the molar value.

Biological target: Human ACE2-hIgG1Fc (human) (UniProt Q9BYF1)
Assay: SPR

Chain of Human ACE2-hIgG1Fc (human) (Q9BYF1 18-740): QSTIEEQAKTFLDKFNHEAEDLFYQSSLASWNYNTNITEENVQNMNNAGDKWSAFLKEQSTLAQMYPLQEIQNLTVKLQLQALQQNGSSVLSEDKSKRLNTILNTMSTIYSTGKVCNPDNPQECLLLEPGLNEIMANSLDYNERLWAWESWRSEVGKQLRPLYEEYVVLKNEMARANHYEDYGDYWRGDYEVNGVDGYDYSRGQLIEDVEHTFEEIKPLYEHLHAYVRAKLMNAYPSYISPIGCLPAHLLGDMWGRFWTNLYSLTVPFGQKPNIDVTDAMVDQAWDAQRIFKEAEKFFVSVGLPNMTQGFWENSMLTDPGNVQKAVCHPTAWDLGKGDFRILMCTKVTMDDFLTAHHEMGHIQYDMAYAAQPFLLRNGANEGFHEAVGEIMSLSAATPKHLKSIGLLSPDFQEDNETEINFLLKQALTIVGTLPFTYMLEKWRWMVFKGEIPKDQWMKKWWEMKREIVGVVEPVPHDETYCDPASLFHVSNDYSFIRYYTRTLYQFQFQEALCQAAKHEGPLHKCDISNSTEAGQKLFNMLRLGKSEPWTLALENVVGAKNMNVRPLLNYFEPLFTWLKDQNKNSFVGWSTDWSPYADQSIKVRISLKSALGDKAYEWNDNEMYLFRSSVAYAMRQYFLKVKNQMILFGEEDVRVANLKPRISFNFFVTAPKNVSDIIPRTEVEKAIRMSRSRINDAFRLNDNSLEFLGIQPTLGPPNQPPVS

Wuhan RBD
pKd: 8.14
koff: 0.0051 s⁻¹
